Assay: Biomolecule release quantification: incorporation efficiency and release kinetics of CpG ODN, GM-CSF and antigen from cryogel vaccines
Assay type: physicochemical
Settings: for encapsulation efficiency: encapsulated in vaccine cryogel by cryo-polymerization

In the case of “granulocyte-macrophage colony-stimulating factor [GM-CSF]”, the “burst release of the loaded amount” value (GM-CSF from vaccine cryogel, in vitro) is reported as “about 8%”, the encapsulation efficiency is reported as 87% and the GM-CSF released (over the first 5 days in vitro) is reported as 85%.

In the case of “5′-TCCATGACGTTCCTGACGTT-3′ [CpG-ODN, reference compound]”, the encapsulation efficiency is reported as 48% and the “CpG-ODN eluted from the hydrogel” value (within the first 2 days) is reported as 50%.

Source: patent US20240269252A1, “COMPOSITIONS FOR INDUCING AN IMMUNE RESPONSE” (President and Fellows of Harvard College, priority 2017, published 2024)
